According to publication doi:10.1101/2025.05.26.656073 (bioRxiv, 2025):
Numbering of substitutions follows the chain as printed. Names and notes keep the numbering of the source.

What was measured:
[1] = target: T1, Orange Carotenoid Protein, dark-adapted state (OCP^O), wild type, canthaxanthin-binding holo form (Synechocystis sp. PCC 6803), P74102; experiment: SAXS; settings: remark: other sources report otherwise
T1 chain: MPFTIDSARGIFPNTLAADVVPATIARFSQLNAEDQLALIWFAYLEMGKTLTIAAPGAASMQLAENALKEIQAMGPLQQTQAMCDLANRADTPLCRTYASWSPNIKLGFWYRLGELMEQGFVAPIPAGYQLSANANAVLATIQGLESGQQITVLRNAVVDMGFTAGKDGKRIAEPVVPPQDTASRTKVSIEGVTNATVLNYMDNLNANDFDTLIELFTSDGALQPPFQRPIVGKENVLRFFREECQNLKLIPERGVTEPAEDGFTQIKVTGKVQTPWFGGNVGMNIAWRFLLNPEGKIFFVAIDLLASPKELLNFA

[2] = target: T1, Orange Carotenoid Protein, dark-adapted …; experiment: transient grating spectroscopy; settings: remark: other sources report otherwise
[3] = target: T1, Orange Carotenoid Protein, dark-adapted …; experiment: SEC; settings: remark: other sources report otherwise
[4] = target: T2, apo-OCP (carotenoid-free Orange Carotenoid Protein) (Synechocystis sp. PCC 6803), P74102; experiment: SAXS; settings: remark: other sources report otherwise
T2 chain: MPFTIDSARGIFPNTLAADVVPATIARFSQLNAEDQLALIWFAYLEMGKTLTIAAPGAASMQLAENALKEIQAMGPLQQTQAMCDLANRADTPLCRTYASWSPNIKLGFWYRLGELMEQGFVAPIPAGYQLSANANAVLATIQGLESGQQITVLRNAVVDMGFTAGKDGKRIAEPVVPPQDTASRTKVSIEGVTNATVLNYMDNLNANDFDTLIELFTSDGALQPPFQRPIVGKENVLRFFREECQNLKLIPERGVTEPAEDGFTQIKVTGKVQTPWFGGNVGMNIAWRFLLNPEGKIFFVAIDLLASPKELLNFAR

[5] = target: T2, apo-OCP (carotenoid-free Orange …); experiment: SEC; settings: remark: other sources report otherwise
[6] = target: the molecule itself; experiment: SEC
[7] = target: T3, Orange Carotenoid Protein, light-adapted state (OCP^R), wild type, canthaxanthin-binding holo form (Synechocystis sp. PCC 6803), P74102; experiment: SAXS; settings: remark: other sources report otherwise
T3 chain: T2 chain

[8] = target: T3, Orange Carotenoid Protein, …; experiment: SEC; settings: remark: other sources report otherwise

B1: Orange Carotenoid Protein, dark-adapted state (OCP^O), wild type, canthaxanthin-binding holo form, P74102 1-316 (natural protein)
chain: T1 chain
- stoichiometry N [1]: 2
- fitted dimer fraction (100 µM) [2]: 0.6
- k1d (rate constant of the photo-induced dissociation of the OCP^O dimer) [2]: 1000 s⁻¹
- Kd [3]: 10 µM
- stoichiometry N [3]: 2

B2: apo-OCP (carotenoid-free Orange Carotenoid Protein), P74102 1-317 (natural protein)
chain: T2 chain
- stoichiometry N [4]: 2
- Kd [5]: 0.5 µM
- stoichiometry N [5]: 2

B3: OCP(R27L) mutant, light-adapted state (natural protein)
chain: T2 chain with R27L
- stoichiometry N [6]: 2

B4: Orange Carotenoid Protein, light-adapted state (OCP^R), wild type, canthaxanthin-binding holo form, P74102 1-317 (natural protein)
chain: T2 chain
- stoichiometry N [7]: 2
- Kd [8]: 1.8 µM
- stoichiometry N [8]: 2
